{
  "source": "patent US12241094B2",
  "about": "“Phenazine degrading agents and related compositions, methods and systems for interfering with viability of bacteria” (priority 2016, dated 2025)",
  "molecules": {"B1": {"name": "PodA30-162: truncated pyocyanin demethylase encoded by MFORT_14352 of Mycobacterium fortuitum lacking N-terminal helix, SEQ ID NO: 2 (protein, listed as Mycobacterium fortuitum)", "chain": "MDGRGGRSTTEPVTMTLDVKNDQVAKHDFGKPGMDVGDMDIFSDILSVDGKQVGYDGGACFFTNVTPDNPMTYCELTIHLDAGEIFARSLTPHTLAPFTMAITGGTGEYANSKGELTVSGVATPDEKYELKLTKAENLYFQ"}},
  "key": {"[1]": {"tested_on": "P. aeruginosa planktonic culture", "test": "Phenazines in planktonic P. aeruginosa cultures (HPLC)", "assay_type": "cell-based", "source_text": "Product was cut with DpnI to remove WT vector, phosphorylated with T4 polynucleotide kinase, and ligated to generate a circular mutant protein expression construct. For D72N and Y156F mutants, DNA fragments encoding the mutation were synthesized (Integrated DNA Technologies) and cloned into pET-20b(+) as for the wild type sequence. Enzymes for cloning were purchased from New England Biolabs. Constructs were transferred to E. coli BL21(DE3) for expression. All mutations were confirmed by Sanger sequencing (Laragen and Retrogen). When necessary, 100 μg mL^−1 carbenicillin was included in all growth media to maintain selection for the plasmid. To measure the effect of PodA30-162 on phenazine production in planktonically grown P. aeruginosa, cultures were grown overnight in 5 mL volumes of tryptic soy broth (TSB) or succinate minimal medium (arginine medium recipe from Glasser et al., 2014 with 40 mM sodium succinate in place of arginine) (3) in the presence 1 μg mL^−1 PodA30-162. Cells were removed by centrifugation and supernatants were analyzed by HPLC as previously described (9). See below for a description of biofilm growth of P. aeruginosa PA14. To induce protein expression, an overnight culture was inoculated 1/1000 in Terrific Broth (BD Difco). Cultures were grown in baffled Erlenmeyer flasks (1 L culture per 3 L flask) at 37° C. with 150 rpm agitation in a shaking incubator (Innova 44 shaking incubator, New Brunswick). After 3-4 hours, the temperature was changed to 16° C. and cultures were induced with 50 μM (final concentration) IPTG and left to incubate overnight. Cells were then pelleted by centrifugation, flash frozen in liquid N2, and stored at −80° C. for up to 1 month before protein purification."}, "[2]": {"test": "PYO demethylation in the presence of DNA", "assay_type": "biochemical", "details": "gDNA pellet, 2 μg mL^−1, 3 hours", "method": "Biofilm experiments. For all experiments involving inactivated PodA, either the E154A mutant or PodA30-162 that was subjected to a 1 hour treatment at 98° C. was used. To test the ability of PodA30-162 to degrade PYO in the presence of DNA, genomic DNA (gDNA) from P. aeruginosa PA14 was used in modified versions of previously described assays (59). For experiments using DNA pellets, 0.5 mg of gDNA was pelleted in the presence of 300 mM sodium acetate, pH 5.2 and 70% ethanol. Pellets were washed with 70% ethanol and dried. 200 μL of 800 μM PYO was added to the gDNA pellet without mixing and left to sit at room temperature for 6 hours to allow for diffusion of PYO into the gDNA pellet. The pellet was washed once with 70% EtOH, and submerged in a solution containing 10 mM Tris, pH 7.0 and 40% isopropanol. The pellet remained blue, consistent with an association of PYO with DNA. PodA30-162 was added to the isopropanol solution to a final concentration of 2 μg mL^−1 and left to sit for 3 hours to allow for the reaction to proceed. Tubes were imaged before and after PodA30-162 treatment. […] The PYO gDNA mixture was amended with 1 μg mL^−1 PodA30-162 and loss of PYO was monitored on a BioTek Synergy 4 microplate reader (BioTek) plate reader at 690 nm. Standards were included to quantify PYO loss over time. […]"}},
  "data": [
    {"molecule": "B1", "values": [
      {"measurement": "total phenazine concentrations", "setting": "[1]; TSB", "value": "remain constant"},
      {"measurement": "enzyme stability in P. aeruginosa overnight culture", "setting": "[1]; TSB, enzyme added at start of culture", "value": "remained stable throughout the incubation period"},
      {"measurement": "effect on PYO in planktonic culture", "setting": "[1]; rich and minimal medium, 1 μg mL^−1 PodA30-162", "value": "conversion of PYO to 1-OH-PHZ"},
      {"measurement": "phenazine production", "setting": "[1]; tryptic soy broth, 24 hours", "value": "changes to the concentrations of all four phenazines"},
      {"measurement": "demethylation of PYO associated with precipitated DNA", "setting": "[2]", "value": "not protected"}
    ]}
  ]
}
